According to paper PMC2928777, “Neuropeptide delivery to the brain: a von Willebrand factor signal peptide to direct neuropeptide secretion” (BMC Neuroscience, 2010):
Each block holds one molecule with its values, some of them ahead of it.

Target: T1, human MC4R (Homo sapiens, UniProt P32245)
T1 construct: expressed in transfected cells; host or cells: HEK 293T cells, transient transfection with polyethylenimine, co-transfected with CRE-LacZ
Test: LacZ reporter gene assay (MC4R_CRE-LacZ transfected 293T cells)
Type: cell-based
Conditions: for EC50: 10% of the volume added was supernatant of 293T cells transfected with the named construct, antagonism of MC4R (rightward shift), average of 4 trials, read-out: EC50 of NDP-MSH dose response curve in presence of supernatant
Description: Activation of MC4R in vitro results in an increase in cyclic adenosine monophosphate (cAMP)[27]. In our assay upregulation of cAMP increased LacZ expression through a cAMP responsive element.
Activation of the MC4R was determined using LacZ as a reporter gene. DNA was transfected into cells with polyethylenimine. Fifty nanograms of human MC4R and 10 μg of cAMP-responsive element (CRE)-LacZ were transfected into 293T cells on 10cm dishes. Another five 10cm dishes with 293T cells were transfected with 10 μg of respectively pAAV-GFP, pAAV-flAgRP, pAAV-VWF-AgRP83-132 , pAAV-VWF-αMSH1 and pAAV-VWF-αMSH4. One day after transfection the MC4R_CRE-LacZ cells were transferred to poly-L-lysine coated 96-wells plates. Three days after transfection supernatant of 10cm dishes was removed and used for LacZ reporter assay. […] In addition only forskolin was added to other wells as a positive control for CRE-LacZ transfection and the subsequent colometric reaction. The medium of another plate with MC4R_CRE-LacZ transfected cells was replaced with assay buffer containing serial dilutions of conditioned medium from cells transfected with αMSH1, αMSH4 or GFP. […] After 5-6 hour incubation at 37°C the assay medium was removed and replaced by 40 μl lysisbuffer (phosphate buffered saline (PBS) containing 0.1% Triton-X-100). The plates were stored at -20°C. After thawing of the plates, 80 μl of substrate (0.1 M phosphate buffer, pH7.4, containing 1.6 g/l o-nitrophenyl β-D-galactopyranoside (ONPG, Invitrogen, the Netherlands), 67.5 mM β-mercaptoethanol (Merck, Germany) and 1.5 mM magnesium chloride) was added to each well. Absorbance at 405 nm was measured in a Victor^2 microplate reader (PerkinElmer, Brussels, Belgium).
Data were analyzed with GraphPad Prism (GraphPad Software Inc., California). Competition curves were fitted from duplicate data points using sigmoidal dose response curve with variable slope.

T1 sequence (P32245 whole entry): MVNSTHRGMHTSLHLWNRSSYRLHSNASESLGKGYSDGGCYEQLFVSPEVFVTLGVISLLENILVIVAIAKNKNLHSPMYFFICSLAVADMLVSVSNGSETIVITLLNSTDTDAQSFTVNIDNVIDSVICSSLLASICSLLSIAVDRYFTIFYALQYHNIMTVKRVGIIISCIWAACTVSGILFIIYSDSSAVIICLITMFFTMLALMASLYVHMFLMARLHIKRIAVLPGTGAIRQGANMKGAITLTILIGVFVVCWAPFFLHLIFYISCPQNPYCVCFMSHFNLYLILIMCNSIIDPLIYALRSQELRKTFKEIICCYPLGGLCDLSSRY

EC50: 0.5 nM
Molecule: VWF-AgRP83-132: minigene product: VWF signal peptide, HA tag, furin site and AgRP83-132; tested as supernatant of transfected 293T cells (SPRRCVRLHESCLGQQVPCCDPCATCYCRFFNAFCYCRKLGTATNLCSRT; not fully specified; Secreted furin-released minigene product; VWF signal peptide, HA tag and RKRR furin site left out; The name 83-132 follows human numbering; it equals mouse precursor 82-131, since the printed primer e)

EC50: 1.4 nM
Shift of NDP-MSH dose response curve in presence of supernatant (50% of the volume added was supernatant of transfected 293T cells): shifted even further to the right
B1: flAgRP: supernatant of 293T cells transfected with full length mouse Agouti-related protein construct with normal AgRP signal peptide (protein, UniProt P56473 1-131, looked up)
chain: MLTAMLLSCVLLLALPPTLGVQMGVAPLKGIRRPDQALFPEFPGLSLNGLKKTTADRAEEVLLQKAEALAEVLDPQNRESRSPRRCVRLHESCLGQQVPCCDPCATCYCRFFNAFCYCRKLGTATNLCSRT
modifications: full-length
notes: supernatant of 293T cells transfected with full length mouse Agouti-related protein construct with normal AgRP signal peptide
